In patent publication US20070142318A1, “Compositions, methods and kits for repressing virulence in gram positive bacteria” (priority 2004, published 2007):
Where two headings read alike, the source gives them in different places.

Legend:
[1] = test system: ilvB promoter lacZ fusions; settings: GTP limitation by addition of decoyinine; cited from earlier work
[2] = test system: wild-type cells; settings: excess nutrients; cited from earlier work
[3] = biological target: T1, CodY (Bacillus subtilis, UniProt P39779); assay: Gel shift assay, stimulation of CodY binding to target DNA by effectors; parameters: species or system B. subtilis; settings: for stimulation of CodY binding to new target genes and dpp promoter region: amino acids 10-30 mM
T1 sequence (P39779 1-259): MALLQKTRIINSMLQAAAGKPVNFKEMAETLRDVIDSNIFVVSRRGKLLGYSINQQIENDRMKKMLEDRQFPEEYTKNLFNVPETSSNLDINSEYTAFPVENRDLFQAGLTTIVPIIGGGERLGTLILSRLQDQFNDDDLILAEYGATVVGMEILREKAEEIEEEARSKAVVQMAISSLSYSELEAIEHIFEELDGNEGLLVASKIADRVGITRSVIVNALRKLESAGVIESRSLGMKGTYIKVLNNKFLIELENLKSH
Procedure: A test of whether BCAAs have any direct effect on CodY activity was performed. […] In all cases, the apparent dissociation constant for binding was substantially below the concentration of CodY inside the cell (4 μM, see below). […] By regulating gene expression in response to both the GTP level and the availability of certain amino acids, CodY can insure that the cell responds in a coherent way to many types of nutritional stress.
The effects of GTP and BCAAs at different CodY targets can vary. At several target sites, BCAAs and GTP were each found to have small stimulatory effects on binding (in a gel shift assay), but the mixture strongly stimulates (FIG. 1). […] Some genes may respond to CodY in its GTP-bound conformation, other genes to CodY in its BCAA-bound conformation, and still other genes to CodY bound to both kinds of effectors. These variations could reflect differences in specificity of binding or differences in affinity of binding.
The concentration dependence of stimulation of DNA binding by effectors is assessed. At the dpp promoter, GTP at 600 μM increased the fraction of DNA that was bound by a constant concentration of CodY (in a gel shift assay) from 10% to 50%. Titration assays of this type, using varying concentrations of GTP, isoleucine, and valine, provide a measure of the effective concentrations of each of these effectors.

[4] = test system: CodY (Staphylococcus aureus); assay: EMSA; settings: concentration giving shift; 2 mM GTP + 10 mM each Ile, Val, Leu
[5] = biological target: T1, CodY; settings: cited from earlier work
[6] = biological target: T1, CodY; settings: cited from earlier work; remark: listed apart in the source
[7] = test system: CodY (Bacillus subtilis); assay: EMSA; settings: 2 mM GTP + 10 mM each Ile, Leu, Val; 150 nM without effectors
[8] = test system: CodY A207D A207D (Bacillus subtilis); assay: EMSA; settings: GTP + ILV; also >500 without effectors
[9] = test system: CodY R214E R214E (Bacillus subtilis); assay: EMSA; settings: GTP + ILV; also >500 without effectors
[10] = test system: CodY S215T S215T (Bacillus subtilis); assay: EMSA
[11] = test system: dpp-lacZ; assay: dpp-lacZ expression in vivo (β-galactosidase); settings: for β-galactosidase expression (Miller units) in mid-exponential cells: dpp-lacZ; for derepression of expression in vivo: versus wild type
[12] = biological target: dpp promoter region; assay: Gel mobility shift assay of CodY binding to the dpp promoter region; settings: CodY concentration that shifted 50% of the DNA
[13] = read-out: Estimated KD (nM), +GTP, ILV, GTP (2 mM) and isoleucine, valine and leucine (10 mM each)
[14] = read-out: Estimated KD (nM), No effectors

C=C1O[C@@](CO)(n2cnc3c(N)ncnc32)[C@H](O)[C@@H]1O [decoyinine]
induction of ilvB-lacZ fusions with or without T-box [1]: induced both fusions | sporulation of wild-type cells [2]: failed to sporulate efficiently unless decoyinine was added

CC[C@H](C)[C@H](N)C(=O)O [isoleucine]
stimulation of CodY binding to new target genes and dpp promoter region [3]: stimulated significantly

nuc promoter region
binding [4]: 160 nM

CC(C)[C@H](N)C(=O)O [valine]
stimulation of CodY binding to new target genes and dpp promoter region [3]: stimulated significantly

CC(C)C[C@H](N)C(=O)O [leucine]
stimulation of CodY binding to new target genes and dpp promoter region [3]: not

Nc1nc2c(ncn2[C@@H]2O[C@H](COP(=O)(O)OP(=O)(O)OP(=O)(O)O)[C@@H](O)[C@H]2O)c(=O)[nH]1 [GTP, guanosine triphosphate]
fraction of DNA bound by a constant concentration of CodY ([3]; dpp promoter, GTP at 600 μM, 10% without): 50% | effect on CodY binding at the yhdG regulatory region ([3]; yhdG regulatory region, alone or in combination): only a small effect | repression of dpp transcription by CodY ([5]; 300 μM GTP (typical of early stationary phase cells)): almost no repression | inhibition of dpp transcription by CodY ([5]; 2 mM GTP): ~80% | EC50 ([5]; read-out: GTP concentration giving 50% repression of transcription from the dpp promoter): ~1.5 mM | binding to CodY compared with ATP, CTP or UTP [6]: more avidly

hla promoter region
binding [4]: 160 nM

dpp promoter region
Kd [7]: 20 nM | Kd [8]: > 500 nM | Kd [9]: > 500 nM | Kd [10]: > 500 nM

B1: A207D (protein, UniProt P39779 2-259, looked up, variant A207D)
Global transcriptional …: ALLQKTRIINSMLQAAAGKPVNFKEMAETLRDVIDSNIFVVSRRGKLLGYSINQQIENDRMKKMLEDRQFPEEYTKNLFNVPETSSNLDINSEYTAFPVENRDLFQAGLTTIVPIIGGGERLGTLILSRLQDQFNDDDLILAEYGATVVGMEILREKAEEIEEEARSKAVVQMAISSLSYSELEAIEHIFEELDGNEGLLVASKIDDRVGITRSVIVNALRKLESAGVIESRSLGMKGTYIKVLNNKFLIELENLKSH
derepression in vivo [11]: severe derepression | β-galactosidase expression (Miller units) in mid-exponential cells [11]: 130 Miller units | Kd [12, 13]: > 500 nM | Kd [12, 14]: > 500 nM

B2: V218A (protein, UniProt P39779 2-259, looked up, variant V218A)
Global transcriptional …: ALLQKTRIINSMLQAAAGKPVNFKEMAETLRDVIDSNIFVVSRRGKLLGYSINQQIENDRMKKMLEDRQFPEEYTKNLFNVPETSSNLDINSEYTAFPVENRDLFQAGLTTIVPIIGGGERLGTLILSRLQDQFNDDDLILAEYGATVVGMEILREKAEEIEEEARSKAVVQMAISSLSYSELEAIEHIFEELDGNEGLLVASKIADRVGITRSVIANALRKLESAGVIESRSLGMKGTYIKVLNNKFLIELENLKSH
Kd [12, 13]: 100 to 200 nM | Kd [12, 14]: 250 to 500 nM

B3: R214K (protein, UniProt P39779 2-259, looked up, variant R214K)
Global transcriptional …: ALLQKTRIINSMLQAAAGKPVNFKEMAETLRDVIDSNIFVVSRRGKLLGYSINQQIENDRMKKMLEDRQFPEEYTKNLFNVPETSSNLDINSEYTAFPVENRDLFQAGLTTIVPIIGGGERLGTLILSRLQDQFNDDDLILAEYGATVVGMEILREKAEEIEEEARSKAVVQMAISSLSYSELEAIEHIFEELDGNEGLLVASKIADRVGITKSVIVNALRKLESAGVIESRSLGMKGTYIKVLNNKFLIELENLKSH
derepression of expression in vivo [11]: 2 fold

B4: S215T (protein, UniProt P39779 2-259, looked up, variant S215T)
Global transcriptional …: ALLQKTRIINSMLQAAAGKPVNFKEMAETLRDVIDSNIFVVSRRGKLLGYSINQQIENDRMKKMLEDRQFPEEYTKNLFNVPETSSNLDINSEYTAFPVENRDLFQAGLTTIVPIIGGGERLGTLILSRLQDQFNDDDLILAEYGATVVGMEILREKAEEIEEEARSKAVVQMAISSLSYSELEAIEHIFEELDGNEGLLVASKIADRVGITRTVIVNALRKLESAGVIESRSLGMKGTYIKVLNNKFLIELENLKSH
β-galactosidase expression (Miller units) in mid-exponential cells [11]: 150 Miller units | derepression of expression in vivo [11]: 2 fold | Kd [12, 13]: > 500 nM

B5: R214E (protein, UniProt P39779 2-259, looked up, variant R214E)
Global transcriptional …: ALLQKTRIINSMLQAAAGKPVNFKEMAETLRDVIDSNIFVVSRRGKLLGYSINQQIENDRMKKMLEDRQFPEEYTKNLFNVPETSSNLDINSEYTAFPVENRDLFQAGLTTIVPIIGGGERLGTLILSRLQDQFNDDDLILAEYGATVVGMEILREKAEEIEEEARSKAVVQMAISSLSYSELEAIEHIFEELDGNEGLLVASKIADRVGITESVIVNALRKLESAGVIESRSLGMKGTYIKVLNNKFLIELENLKSH
derepression in vivo [11]: severe derepression | β-galactosidase expression (Miller units) in mid-exponential cells [11]: 94 Miller units | Kd [12, 13]: > 500 nM | Kd [12, 14]: > 500 nM

B6: V218D (protein, UniProt P39779 2-259, looked up, variant V218D)
Global transcriptional …: ALLQKTRIINSMLQAAAGKPVNFKEMAETLRDVIDSNIFVVSRRGKLLGYSINQQIENDRMKKMLEDRQFPEEYTKNLFNVPETSSNLDINSEYTAFPVENRDLFQAGLTTIVPIIGGGERLGTLILSRLQDQFNDDDLILAEYGATVVGMEILREKAEEIEEEARSKAVVQMAISSLSYSELEAIEHIFEELDGNEGLLVASKIADRVGITRSVIDNALRKLESAGVIESRSLGMKGTYIKVLNNKFLIELENLKSH
derepression in vivo [11]: severe derepression | β-galactosidase expression (Miller units) in mid-exponential cells [11]: 14 Miller units | Kd [12, 13]: 150 to 200 nM

B7: S215F (protein, UniProt P39779 2-259, looked up, variant S215F)
Global transcriptional …: ALLQKTRIINSMLQAAAGKPVNFKEMAETLRDVIDSNIFVVSRRGKLLGYSINQQIENDRMKKMLEDRQFPEEYTKNLFNVPETSSNLDINSEYTAFPVENRDLFQAGLTTIVPIIGGGERLGTLILSRLQDQFNDDDLILAEYGATVVGMEILREKAEEIEEEARSKAVVQMAISSLSYSELEAIEHIFEELDGNEGLLVASKIADRVGITRFVIVNALRKLESAGVIESRSLGMKGTYIKVLNNKFLIELENLKSH
derepression in vivo [11]: severe derepression | β-galactosidase expression (Miller units) in mid-exponential cells [11]: 12 Miller units | Kd [12, 13]: 350 to 400 nM

B8: WT: wild-type B. subtilis CodY, a GTP-activated repressor protein (protein)
chain: ALLQKTRIINSMLQAAAGKPVNFKEMAETLRDVIDSNIFVVSRRGKLLGYSINQQIENDRMKKMLEDRQFPEEYTKNLFNVPETSSNLDINSEYTAFPVENRDLFQAGLTTIVPIIGGGERLGTLILSRLQDQFNDDDLILAEYGATVVGMEILREKAEEIEEEARSKAVVQMAISSLSYSELEAIEHIFEELDGNEGLLVASKIADRVGITRSVIVNALRKLESAGVIESRSLGMKGTYIKVLNNKFLIELENLKSH
β-galactosidase expression (Miller units) in mid-exponential cells [11]: 6 Miller units | Kd [12, 13]: 20 nM | Kd [12, 14]: 150 nM
